Measurements as given in patent publication US20180086823A1 (FRAUNHOFER GESELLSCHAFT ZUR FOERDERUNG DER ANGEWANDTEN …, published 2018).
Like-named read-outs stand apart in the source and are kept apart here.

Tests used:
[1] = molecular target: T1, AMA-1 of Plasmodium falciparum strain 3D7, on parasites (schizonts/merozoites) (Plasmodium falciparum (strain 3D7), UniProt P22621 25-622); test: cell-based or functional assay
T1 chain: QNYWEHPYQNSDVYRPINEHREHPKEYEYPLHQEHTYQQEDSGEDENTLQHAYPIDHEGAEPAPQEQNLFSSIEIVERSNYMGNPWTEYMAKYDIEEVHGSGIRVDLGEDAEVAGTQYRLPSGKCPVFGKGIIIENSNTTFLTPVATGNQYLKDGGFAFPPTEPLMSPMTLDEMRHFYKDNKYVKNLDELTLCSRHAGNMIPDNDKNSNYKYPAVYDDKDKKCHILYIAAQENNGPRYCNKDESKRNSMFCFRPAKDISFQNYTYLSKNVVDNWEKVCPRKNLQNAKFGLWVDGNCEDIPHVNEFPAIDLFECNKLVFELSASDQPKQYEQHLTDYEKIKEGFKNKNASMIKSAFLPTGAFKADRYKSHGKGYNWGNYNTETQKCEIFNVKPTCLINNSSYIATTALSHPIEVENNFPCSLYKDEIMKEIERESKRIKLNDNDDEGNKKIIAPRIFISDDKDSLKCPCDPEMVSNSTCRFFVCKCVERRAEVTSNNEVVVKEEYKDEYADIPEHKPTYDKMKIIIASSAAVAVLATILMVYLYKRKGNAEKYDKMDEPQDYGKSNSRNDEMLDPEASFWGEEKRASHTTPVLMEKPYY

[2] = molecular target: AMA-1 of Plasmodium falciparum strain HB3, on parasites (Plasmodium falciparum (strain HB3)); test: cell-based or functional assay
[3] = molecular target: T1, AMA-1 of Plasmodium falciparum strain …; test: cell-based or functional assay
[4] = molecular target: AMA-1 of Plasmodium falciparum strain K1, on parasites (Plasmodium falciparum (strain K1)); test: cell-based or functional assay
[5] = molecular target: AMA-1 of Plasmodium falciparum strain FCR3, on parasites (Plasmodium falciparum (strain FCR3)); test: cell-based or functional assay
[6] = molecular target: T2, recombinant apical membrane antigen 1 (AMA-1) from Plasmodium falciparum 3D7, produced in Pichia pastoris, … (Plasmodium falciparum (strain 3D7), UniProt P22621 25-546); test: SPR, Biacore T200, protein-A capture of the antibody, 25° C., 1:1 Langmuir fit
T2 construct: also called native target antigen AMA-1; recombinant AMA-1
T2 chain: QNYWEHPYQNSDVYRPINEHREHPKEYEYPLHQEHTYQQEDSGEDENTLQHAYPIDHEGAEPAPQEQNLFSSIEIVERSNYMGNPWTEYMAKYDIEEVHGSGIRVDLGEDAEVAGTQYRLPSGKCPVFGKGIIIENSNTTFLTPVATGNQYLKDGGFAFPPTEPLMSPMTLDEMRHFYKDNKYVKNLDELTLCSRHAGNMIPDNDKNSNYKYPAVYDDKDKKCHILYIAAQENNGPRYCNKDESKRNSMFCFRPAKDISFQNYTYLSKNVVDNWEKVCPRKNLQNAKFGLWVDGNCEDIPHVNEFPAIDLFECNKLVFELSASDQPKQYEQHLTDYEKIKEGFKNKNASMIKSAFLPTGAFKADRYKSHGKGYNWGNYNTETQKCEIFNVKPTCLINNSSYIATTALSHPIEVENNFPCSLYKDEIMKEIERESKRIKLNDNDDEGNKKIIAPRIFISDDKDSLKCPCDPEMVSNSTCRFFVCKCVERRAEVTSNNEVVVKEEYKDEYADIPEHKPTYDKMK
Experimental: All antibodies were diluted into running buffer to yield equivalent capture levels. The injection time was set to 180 s and dissociation was recorded for 600 s. The protein-A surface was regenerated by a 30 s pulse with 30 mM HCI. For the antibody buffer injections were used for double referencing. Values for the KD of the antibody were calculated according to the curve-fitting methodology for a simple binding model (1:1 Langmuir).

B1: huMAb-anti-AMA-1.1 (antibody, V domains shown)
VH: QVQLQESGPGLVKPSETLSLTCSVSGVSVSSTVFYWGWIRQSPGKGLEWIGSIYYSGSTYYNEALKSRLTLSVETSERQFSLRLSSVTAADTAVYYCARGAINFGGYSGPGTFYFDIWGQGTLITVSS
VL: DIQMTQSPSTLSASVGDRVTITCRASQSITTWLAWYQQKPGTAPKLLIYKASILETGVPSRFSGSGSGTDFTLTISSLQPDDFATYYCQQYSTHLFTFGPGTKVDIK
notes: also called recombinant human anti AMA-1 antibody
With B1 the “IC50 [µg/ml], growth inhibition assay (GIA), strain 3D7” value [1] was 32 µg/mL, the “IC50 [µg/ml], growth inhibition assay (GIA), strain HB3” value [2] was 115 µg/mL and the “IC50 [µg/ml], growth inhibition assay (GIA), strain 3D7” value [3] was 32 µg/mL. The “IC50 [µg/ml], growth inhibition assay (GIA), strain K1” value [4] was 113 µg/mL, the “IC50 [µg/ml], growth inhibition assay (GIA), strain FCR3” value [5] was 230 µg/mL and the Kd [6] was 0.188 nM. It also gave a koff [6] of 0.000131 s⁻¹ and a kon [6] of 698000 M⁻¹ s⁻¹.
